Reference: US20200009222A1, “[…] ACTIVE COMPLEXES” (HAMLET PHARMA AB, priority 2016, published 2020)

How the values were obtained:
[1] = system: MB49 bladder tumor; assay: Real-time in vivo fluorescence imaging and tissue uptake of labeled complex; conditions: tumor-bearing mice; intravesical; 24 hours
Procedure: HAMLET or peptides were labeled using VivoTag 680XL Protein Labeling Kit (Perkin Elmer). Mice were anaesthetized using Isofluorane and 100 ul solution of labeled HAMLET or peptide was instilled in bladders of tumor bearing or healthy control mice.
Hair was removed from the ventral sides of anesthetized mice. Mice were imaged at various time points using an IVIS Spectrum imaging system (Perkin Elmer). Signals from HAMLET or peptides were acquired at fluorescent settings with 680 nm excitation. For tissue specific uptake, Alexa-568 labeled peptide was instilled in bladders of tumor bearing or healthy control mice. Mice were sacrificed after 24 hours of treatment and bladder sections were imaged using Zeiss AX10 fluorescence microscope.
The retention of alpha-peptide oleate complexes by the tumor was visualized, by in vivo imaging in mice with palpable tumors. VivoTag 680XL labeled alpha1 peptide-oleate complexes were instilled intra-vesically on day 8 after the inoculation of MB49 cells and the fluorescence signal was monitored longitudinally, using the IVIS spectrum in vivo imaging system.
To verify that the alpha-peptides are retained by the bladder tumor, Alexa Fluor-568 labeled alpha1 peptide-oleate complexes were instilled into the bladders of tumor bearing mice (day 8, palpable tumors).

[2] = system: adherent lung carcinoma cells (A549); assay: Live cell imaging of Alexa-Fluor labeled HAMLET uptake; format: cell-based, human; conditions: 35 μM, 1 hour
Procedure: For uptake experiments lung carcinoma cells were treated with Alexa-488 or 568 labeled HAMLET, washed and visualized under confocal microscope live. Localization of HAMLET in lysosomes was detected by pre-labelling the cells with lysotracker (LysoTracker Green DND-26, Thermo Fisher). For peptide or peptide-oleate complexes uptake, lung carcinoma cells were treated with individual biotinylated peptide alone or mixed with sodium oleate. Cells were fixed (2% PFA, 10 min), permeabilized (0.25% Triton X-100) and blocked with FCS (10% in PBS). The biotinylated peptides were detected with Alexa-488 or 568 labeled streptavidin conjugate (1:200, 5% FCS/PBS, 1 hour). The accumulation of peptide or peptide oleate complexes in lysosomes was investigated by treatment of lung carcinoma cells with Alexa-568 labeled peptide (20%) or peptide-oleate complexes for 1 hour. Cells were counter stained with lysosomal marker, Lysotracker. Slides were examined using LSM 510 META or LSM 800 laser scanning confocal microscope (Carl Zeiss).
During live cell imaging of Alexa-Fluor labeled HAMLET (35 μM, 1 hour) and adherent lung carcinoma cells (A549), two distinct cellular staining patterns (FIG. 1a) were detected. […] Nuclear speckles reside in the inter-chromatin space of eukaryotic nuclei and serve as important nodes in the splicing of pre-mRNA and transport of spliced RNA. […]

[3] = system: SC-35; assay: SC-35 phosphorylation, Western blot analysis and flow cytometry; format: cell-based
Procedure: Cells were grown on 6-well plates (3×10^5/well, TPP) overnight. Cells treated with HAMLET were lysed with mammalian NP-40 lysis buffer supplemented with protease and phosphatase inhibitors (both from Roche Diagnostics). […] The anti-GAPDH (1:1,000, sc-25778, Santa Cruz) and anti-Histone H3 (ab1791, Abcam) were used as loading controls. Primary antibodies followed by HRP-conjugated secondary anti-rabbit or anti-mouse antibodies (1:4000, 5% NFDM, Cell Signaling) and visualized using ECL Plus detection reagent (GE Health Care). Band intensities were quantified using the ImageJ software 1.46r (NIH).

[4] = system: Protein kinase C (PKC) isoforms; assay: Kinex KAM-850 phospho-antibody array; format: cell-based, human; conditions: 1 hour, 21 uM
Procedure: The in vivo kinase activity assay was performed using Kinex™ KAM-850 Antibody Microarray Services (Kinexus, Canada). Untreated and HAMLET-treated samples were performed in duplicates. Raw quantification data and basic analyses for individual samples were provided. Reference data, consolidated data of over 200 samples was also provided as reference, confirming the validity of the assay performed. Targets with percent fold change over control>10 were significant. The targets were identified in the human profiling human activity-based phosphorylation network (Molecular Systems Biology 9:655).

[5] = system: PKC isoforms; assay: ProtoArray Human Protein Microarray interaction profiling; format: binding; conditions: screen of 8000 human proteins
Procedure: (§1) ProtoArray® Human Protein Microarray version 4.0 (Invitrogen) was performed as previously described^20, which consists of approximately 8,000 human proteins. AlexaFluor®568-labeled HAMLET was added to protein arrays at two concentrations (5 and 50 ng/μl) in duplicate, and the fluorescence was measured by using GenePix 6.0. Negative control array was incubated with buffer alone and scanned at a wavelength of 532 nm. […] The interactions were quantified as fold change (FCs) over the average negative control value.

[6] = system: histone H3; assay: as above; format: binding; conditions: screen of 8000 human proteins
Procedure: as §1

[7] = system: bladder cancer; conditions: prior clinical study; cited from earlier work

B1: HAMLET (protein)
chain: KQFTKCELSQLLKDIDGYGGIALPELICTMFHTSGYDTQAIVENNESTEYGLFQISNKLWCKSSQVPQSRNICDISCDKFLDDDITDDIMCAKKILDIKGIDYWLAHKALCTEKLEQWLCEKL
Fluorescence signal of VivoTag 680XL labeled complex, retention [1]: retention | Population I cells (membrane blebbing, diffuse cytoplasmic staining, nuclear speckle accumulation) [2]: 51% | Population II cells (exclusively cytoplasmic, lysosomal uptake) [2]: 47% | SC-35 phosphorylation [3]: inhibited | PKC isoforms with inhibited phosphorylation [4]: 5/6 | Binding to PKC isoforms in proteomic screen [5]: identified as HAMLET targets | Affinity for histone H3 in proteomic screen [6]: confirmed | Toxic effects [7]: not detected | Tumor response to intravesical instillations [7]: massive tumor cell exfoliation
